Experimental data taken from US20230121197A1, “ANTIBODIES SPECIFICALLY BINDING THE CARBOXYMETHYLATED CATALYTIC SUBUNIT OF PROTEIN PHOSPHATASE 2A” (Medizinische Universität Wien, priority 2020, published 2023).

Key:
[1] = target: α-carboxymethylated PP2Ac (Homo sapiens, UniProt P67775); assay: IHC specificity validation (NaOH treatment of slides); design: NaOH treatment to chemically remove the methyl group from the methylated PP2A-C; from tissue; host or cells: de-paraffinized tissue slides; conditions: slides incubated in 200 mM NaOH
Sequence of α-carboxymethylated PP2Ac (P67775 whole entry): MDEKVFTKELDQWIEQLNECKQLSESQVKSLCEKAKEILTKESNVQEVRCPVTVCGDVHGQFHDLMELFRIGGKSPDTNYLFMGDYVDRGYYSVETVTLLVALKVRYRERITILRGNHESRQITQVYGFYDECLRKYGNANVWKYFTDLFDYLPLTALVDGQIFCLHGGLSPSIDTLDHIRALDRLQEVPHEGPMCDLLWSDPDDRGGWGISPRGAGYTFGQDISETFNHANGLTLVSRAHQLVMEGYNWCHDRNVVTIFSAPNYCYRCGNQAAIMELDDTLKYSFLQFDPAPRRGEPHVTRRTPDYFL
Method: Immunohistochemical staining was performed on the DAKO Autostainer (DAKO, Carpinteria, Calif.) using Envision+ or liquid streptavidin-biotin and diaminobenzadine (DAB) as the chromogen. De-paraffinized sections were labeled with mouse monoclonal antibody 7C10-C5 (1:200) overnight at 4 C. Microwave 10 mM Tris HCl, pH9 containing 1 mM EDTA epitope retrieval was used prior to staining. Appropriate negative (no primary antibody) and positive controls (pancreas) were stained in parallel with each set of slides studied. Peptide competition studies were performed using 2 peptides ([…]*) (SEQ ID NO:115) differing in the methylation status at position L (marked with a *); FIG. 13E: Peptides were incubated at ambient temperature for 60 mins at 10-1000× molar ratios before being applied to the slide. FIG. 13F: Before being stained, slides were incubated in freshly made 200 mM NaOH for 10 mins at 4° C. and then neutralized by several washes in TBST.
Stained slides were scanned using an APERIO AT2 (Leica) and the digital images imported into QuPath (Bankhead et al., 2017). TMA cores were analyzed for percentage of cells staining and intensity. In FIGS. 13E and F, higher visibility of the dark cell nuclei indicates weaker α-carboxymethylated PP2Ac staining.

PP2Ac = assay: Summary of detection properties of C-terminal PP2Ac antibodies (Table 4), PP2Ac; type: binding
Method: Examples of antibodies with a preference for non-methylated PP2Ac are mouse monoclonal antibody 4B7 (Yu (2001), Mol Biol Cell 12, 185-199), mouse monoclonal antibody 1D7 generated by the Ogris lab but also the rabbit monoclonal E155 antibody from Abeam and the mouse monoclonal F-8 from SCBT that were thought to be specific for pTyr^307.
E155 was tested for its specificity to phosphorylation and methylation on the carboxy-terminus of PP2A on 6 different undecapeptides by ELISA (FIGS. 18 and 19). Flat-bottom Nunc-Immuno Medisorp 96-well ELISA plates (Thermo; 467320) were coated o/n at 4° C. with 50 μl of either a peptide of the sequence ac-HVTRRTPDYFL-OH (L309) (SEQ ID NO:18) at a concentration of 2 μg/ml, a peptide of the sequence ac-HVTRRTPDYFL-CH3 (meL309) (SEQ ID NO:18) at a concentration of 2 μg/ml in TBS (137 mM NaCl (AppliChem, #131659, 2.7 mM KCl (AppliChem, #131494.), 24.8 mM Tris (AppliChem, #A1086), pH 7.4 with HCl), with a peptide of the sequence ac-HVTRRpTPDYFL-OH (pT304-L309) (SEQ ID NO:116) at a concentration of 2 μg/ml in TBS, or with a peptide of the sequence ac-HVTRRpTPDYFL-CH3 (pT304-meL309) (SEQ ID NO:116) at a concentration of 2 μg/ml in TBS (FIG. 18). The wells were washed once with TBS, blocked with 200 μl of 2% bovine serum albumin (BSA) (Sigma, A9647) in TBS for 1 hour at RT and washed again once with TBS. […] Bound antibodies were detected colorimetrically by addition of 50 μl of 33 μg/ml […] (TMB) (Sigma, T2885) in 0.1 M sodium acetate pH 6.0 and 0.01% H2O2 (Sigma, H1009). The colorimetric reaction was stopped after 10 min by addition of 50 μl 0.5 M H2SO4, and absorbance was measured at 450 nm and 560 nm with a Perkin Elmer VICTOR® Nivo™ microplate reader. The results from 560 nm read were subtracted from the 450 nm read.
In a further experiment, flat-bottom Nunc-Immuno Medisorp 96-well ELISA plates (Thermo; 467320) were coated o/n at 4° C. with 50 μl of either a peptide of the sequence ac-HVTRRTPDYFL-OH (L309) (SEQ ID NO:18) at a concentration of 2 μg/ml in TBS (137 mM NaCl (AppliChem, #131659, 2.7 mM KCl (AppliChem, #131494.), 24.8 mM Tris (AppliChem, #A1086), pH 7.4 with HCl), a peptide of the sequence ac-HVTRRTPDYFL-CH3 (meL309) (SEQ ID NO:18) at a concentration of 2 μg/ml in TBS (137 mM NaCl (AppliChem, #131659.1214, 2.7 mM KCl (AppliChem, #131494.1211) pH 7.4 with HCl), with a peptide of the sequence ac-HVTRRTPDpYFL-OH (pY307-L309) (SEQ ID NO:117) at a concentration of 2 μg/ml in TBS or with a peptide of the sequence ac-HVTRRTPDpYFL-CH3 (pY307-meL309) (SEQ ID NO:117) at a concentration of 2 μg/ml in TBS (FIG. 19). […] The colorimetric reaction was stopped after 10 min by addition of 50 μl 0.5 M H2SO4, and absorbance was measured at 450 nm and 570 nm with a Biotek Synergy™ H1 microplate reader. […]

[2] = antibodies screened for binding methylated PP2Ac

B1: 7C10-C5: α-carboxymethylation specific mouse monoclonal IgG1 antibody from single clone hybridoma 7C10-C5 (DSM ACC3350) (antibody)
heavy: MYRMQLLSCIALSLALVTNSDVQLQESGPGLVKPSQSLSLTCSVTGYSITSGYYWNWIRQFPGNKLEWMGYISYDGSNNYNPSLKNRISITRDTSKNQFFLKLNSVTTEDTATYYCAGRFAYWGQGTLVTVSAAKTTAPSVYPLAPVCGDTTGSSVTLGCLVKGYFPEPVTLTWNSGSLSSGVHTFPAVLQSDLYTLSSSVTVTSSTWPSQSITCNVAHPASSTKVDKKIEPRGPTIKPCPPCKCPAPNLLGGPSVFIFPPKIKDVLMISLSPIVTCVVVDVSEDDPDVQISWFVNNVEVHTAQTQTHREDYNSTLRVVSALPIQHQDWMSGKEFKCKVNNKDLPAPIERTISKPKGSVRAPQVYVLPPPEEEMTKKQVTLTCMVTDFMPEDIYVEWTNNGKTELNYKNTEPVLDSDGSYFMYSKLRVEKKNWVERNSYSCSVVHEGLHNHHTTKSFSRTPGK
light: MDMRVPAQLLGLLLLWLSGARCDVLMTQTPLSLPVSLGDQASISCRSSQSIVHSNGNTYLEWYLQKPGQSPKLLIYKVSNRFSGVPDRFSGSGSGTDFTLKINRVEAEDLGVYYCFQGSHVPWTFGGGTKLEIKADAAPTVSIFPPSSEQLTSGGASVVCFLNNFYPKDINVKWKIDGSERQNGVLNSWTDQDSKDSTYSMSSTLTLTKDEYERHNSYTCEATHKTSTSPIVKSFNRNEC
modifications: Amino acid sequence of the recombinant 7C10-C5 heavy chain; Amino acid sequence of the recombinant 7C10-C5 light chain
[1]
  IHC staining after chemical removal of the methyl group: diminished staining upon treatment with NaOH
PP2Ac; PP2Ac carboxymethylated at Leu309
  meLeu^309: *** (*** 80-100%)
PP2Ac; [2]
  pThr^304 meLeu^309: **** (**** >100%)
  pTyr^307 meLeu^309: *** (*** 80-100%)
PP2Ac; unmodified PP2Ac C-terminus
  unmodified: — (— <15%)
